Laboratory results reported in patent US20090186043A1 (BEN GURION UNIVERSITY OF THE NEGEV RESEARCH AND DEVELOPMENT …, published 2009).

Target: T1, Recombinant Fructose Bisphosphate Aldolase (rFBA), FBA-HAT fusion protein, 33.5 kDa (Streptococcus pneumoniae TIGR4, UniProt P0A4S1 1-293)
T1 construct: Expressed in E. coli BL21(DE3)pLysS and purified on Ni-NTA in 8 M urea; also called rFBA-HAT fusion protein; recombinant FBA; not shown: HAT (histidine) tag from the pHAT expression vector
T1 sequence (looked up): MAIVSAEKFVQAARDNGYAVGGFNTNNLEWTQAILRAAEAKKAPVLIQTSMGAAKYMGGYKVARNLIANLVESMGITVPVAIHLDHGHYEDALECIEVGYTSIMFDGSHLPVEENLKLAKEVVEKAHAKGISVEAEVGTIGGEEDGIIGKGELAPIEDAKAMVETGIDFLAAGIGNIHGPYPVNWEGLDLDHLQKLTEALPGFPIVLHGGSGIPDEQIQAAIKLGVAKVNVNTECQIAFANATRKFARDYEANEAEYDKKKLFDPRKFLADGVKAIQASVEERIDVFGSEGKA
Assay: Western blot like overlay: rFBA on nitrocellulose probed with FCRP, rabbit anti-FCRP-KLH serum and anti-rabbit IgG

B1: Flamingo Cadherin receptor derived synthetic peptide (FCRP), 15 amino acids (peptide)
peptide: H-ADSDSDSDLSLEEER-OH
notes: Derived from human Flamingo homolog 1 (Q9NYQ7); also called FC peptide; FC derived synthetic peptide
B1: binds.
